According to article doi:10.1101/2024.10.29.620959:

What was measured:
[1] = target: FadD5(1-448), N-terminal domain construct of Mycobacterium tuberculosis FadD5 (Mycobacterium tuberculosis H37Rv); assay: SEC-MALS
[2] = target: Mycobacterium tuberculosis FadD5 (fatty acyl-CoA synthetase, Rv0166), full length (Mycobacterium tuberculosis H37Rv); assay: native gel or EMSA
[3] = target: Mycobacterium tuberculosis FadD5 (fatty acyl-CoA synthetase, Rv0166), full length (Mycobacterium tuberculosis H37Rv); assay: SEC-MALS
[4] = target: Mycobacterium tuberculosis FadD5 (fatty acyl-CoA synthetase, Rv0166), full length (Mycobacterium tuberculosis H37Rv); assay: SAXS

Which stoichiometry N [1] does the source give for “FadD5(1-448), N-terminal domain construct of Mycobacterium tuberculosis FadD5 (domain or fragment)” here?
Its stoichiometry N is 2.

What does the source list for “Mycobacterium tuberculosis FadD5 (fatty acyl-CoA synthetase, Rv0166), full length (enzyme)”?
stoichiometry N [2]: 2; stoichiometry N [3]: 2; stoichiometry N [4]: 2
